A value given as a limit tells only on which side of the number the result lay.

For the test, the target named is T1, STAT1 N domain (aminoterminal domain), recombinant.
T1 chain: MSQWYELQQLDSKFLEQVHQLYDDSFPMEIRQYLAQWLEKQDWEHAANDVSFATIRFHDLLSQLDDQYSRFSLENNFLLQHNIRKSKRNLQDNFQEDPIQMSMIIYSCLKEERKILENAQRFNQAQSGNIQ
The experiment in a line: AUC; sedimentation equilibrium of purified recombinant N domains, homo- and heterotypic associations (dimer to monomers); STAT1 N domain and mEGFP-tagged STAT2 N domain at final equimolar concentrations of 2.5, 10, and 40 μM. Conditions: both partners purified.

B1: STAT1 N domain (aminoterminal domain), recombinant (domain or fragment)
chain: T1 chain
modifications: limits not printed (S1 Text/ref. 22); N domain taken up to the start of the conventional STAT1 core fragment (132-713); Strep-tag omitted / limits not printed (S1 Text/ref. 22); N domain taken up to …
B1: the “fold stronger than STAT2 N domain homodimers” value was ~50 fold.

B2: STAT2 N domain (aminoterminal domain), recombinant, mEGFP-tagged (domain or fragment)
chain: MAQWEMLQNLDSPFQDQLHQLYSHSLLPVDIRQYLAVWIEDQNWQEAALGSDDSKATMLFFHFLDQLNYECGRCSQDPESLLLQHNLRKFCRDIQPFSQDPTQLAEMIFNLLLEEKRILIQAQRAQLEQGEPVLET
modifications: limits not given; N domain taken up to the start of the core region (P52630 region from 138), homologous to STAT1 1-131; mEGFP and Strep-tag omitted / limits not printed (S1 Text/ref. 22); N domain
As to B2, the “fold stronger than STAT1 N domain homodimers” value is ≥ 1000 fold.

(Values after paper PMC5079630, “STAT2 Is a Pervasive Cytokine Regulator due to Its Inhibition of STAT1 in Multiple Signaling Pathways” (PLoS Biology, 2016).)
